Data: PMC12174348 (Nature Communications, 2025)

Target: human NMDAR (GluN1 and GluN2B subunits) on HEK293 cells (Homo sapiens, UniProt Q05586;Q13224)
Experiment: cell-based or functional assay

in vitro pathogenicity (NMDAR internalization) of 502 Ab, EC50; the sentence may also mean its binding: 0.021 µg/mL
B1: reference pathogenic anti-NMDAR autoantibody 502 Ab (antibody, V domains shown)
VH: QVQLQESGPGLVKPSQTLSLTCSVTGYSITSDYYWHWIRQPPGKGLEWIAYIRYDGRNDSNPSLKNRVTISRDTSKNQFSLKLSSVTAADTAVYYCAREDYASSSFDYWGQGTLVTVSS
VL: DIQMTQSPSSLSASVGDRVTITCRPSENIYSNLAWYQQKPGKAPKLLVYAATNLADGVPSRFSGSGSGTDYTLTISSLQPEDIATYYCQHFWDSPPTFGQGTKLEIK
